{"source": "paper PMC5854407", "about": "(Nature, 2017)", "key": {"[1]": {"target": "rTRPV6* (rat TRPV6 construct previously used for crystallographic studies) (rat)", "experiment": "cryo-EM structure"}, "hTRPV6": {"target": "T1, hTRPV6 (Homo sapiens, UniProt Q9H1D0, R510E)", "T1 sequence (Q9H1D0 41-765 R510E)": "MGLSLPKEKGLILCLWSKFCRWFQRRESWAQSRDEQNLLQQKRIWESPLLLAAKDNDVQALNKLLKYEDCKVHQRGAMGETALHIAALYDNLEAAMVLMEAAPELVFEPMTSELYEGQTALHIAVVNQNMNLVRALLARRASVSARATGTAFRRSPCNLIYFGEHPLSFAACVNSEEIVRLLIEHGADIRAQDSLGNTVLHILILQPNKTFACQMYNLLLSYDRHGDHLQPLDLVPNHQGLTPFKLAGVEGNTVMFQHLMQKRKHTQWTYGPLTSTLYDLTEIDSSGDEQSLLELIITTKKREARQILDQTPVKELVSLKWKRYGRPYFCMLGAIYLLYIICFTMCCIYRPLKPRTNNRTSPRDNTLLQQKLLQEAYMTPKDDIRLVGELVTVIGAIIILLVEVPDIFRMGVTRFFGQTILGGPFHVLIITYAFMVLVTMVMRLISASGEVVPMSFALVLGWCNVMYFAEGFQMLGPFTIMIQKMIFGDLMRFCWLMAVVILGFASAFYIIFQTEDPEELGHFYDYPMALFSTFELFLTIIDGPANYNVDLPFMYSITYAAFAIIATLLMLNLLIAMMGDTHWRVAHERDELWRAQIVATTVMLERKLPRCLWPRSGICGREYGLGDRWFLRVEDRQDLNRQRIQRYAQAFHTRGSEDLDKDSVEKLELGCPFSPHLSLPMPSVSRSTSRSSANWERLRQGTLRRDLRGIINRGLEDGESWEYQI", "experiment": "Fura-2 AM ratiometric Ca2+ uptake in HEK cells", "type": "cell-based"}, "hTRPV6-R470E (human)": {"target": "hTRPV6-R470E (human)", "experiment": "cryo-EM structure"}}, "data": [{"molecule": "rTRPV6* (rat TRPV6 construct previously used for crystallographic studies) (natural protein)", "values": [{"measurement": "stoichiometry N", "setting": "[1]", "value": 4}]}, {"molecule": "NCCOB(c1ccccc1)c1ccccc1", "note": "[2-APB]", "values": [{"measurement": "IC50", "setting": "hTRPV6", "value": "85 ± 5", "unit": "µM"}]}, {"molecule": "hTRPV6-R470E (natural protein)", "values": [{"measurement": "stoichiometry N", "setting": "hTRPV6-R470E (human)", "value": 4}]}]}
